# From IntAct's records for PubMed 16648845
# B1: Serine/threonine-protein kinase Nek2 (Homo sapiens), P51955 (parent)
# chain: MPSRAEDYEVLYTIGTGSYGRCQKIRRKSDGKILVWKELDYGSMTEAEKQMLVSEVNLLRELKHPNIVRYYDRIIDRTNTTLYIVMEYCEGGDLASVITKGTKERQYLDEEFVLRVMTQLTLALKECHRRSDGGHTVLHRDLKPANVFLDGKQNVKLGDFGLARILNHDTSFAKTFVGTPYYMSPEQMNRMSYNEKSDIWSLGCLLYELCALMPPFTAFSQKELAGKIREGKFRRIPYRYSDELNEIITRMLNLKDYHRPSVEEILENPLIADLVADEQRRNLERRGRQLGEPEKSQDSSPVLSELKLKEIQLQERERALKAREERLEQKEQELCVRERLAEDKLARAENLLKNYSLLKERKFLSLASNPELLNLPSSVIKKKVHFSGESKENIMRSENSESQLTSKSKCKDLKKRLHAAQLRAQALSDIEKNYQLKSRQILGMR
# Variants of: B1
# Conditions: with cdc27_human CDC27, P30260
# cdc27_human CDC27, P30260, sequence (P30260 whole entry): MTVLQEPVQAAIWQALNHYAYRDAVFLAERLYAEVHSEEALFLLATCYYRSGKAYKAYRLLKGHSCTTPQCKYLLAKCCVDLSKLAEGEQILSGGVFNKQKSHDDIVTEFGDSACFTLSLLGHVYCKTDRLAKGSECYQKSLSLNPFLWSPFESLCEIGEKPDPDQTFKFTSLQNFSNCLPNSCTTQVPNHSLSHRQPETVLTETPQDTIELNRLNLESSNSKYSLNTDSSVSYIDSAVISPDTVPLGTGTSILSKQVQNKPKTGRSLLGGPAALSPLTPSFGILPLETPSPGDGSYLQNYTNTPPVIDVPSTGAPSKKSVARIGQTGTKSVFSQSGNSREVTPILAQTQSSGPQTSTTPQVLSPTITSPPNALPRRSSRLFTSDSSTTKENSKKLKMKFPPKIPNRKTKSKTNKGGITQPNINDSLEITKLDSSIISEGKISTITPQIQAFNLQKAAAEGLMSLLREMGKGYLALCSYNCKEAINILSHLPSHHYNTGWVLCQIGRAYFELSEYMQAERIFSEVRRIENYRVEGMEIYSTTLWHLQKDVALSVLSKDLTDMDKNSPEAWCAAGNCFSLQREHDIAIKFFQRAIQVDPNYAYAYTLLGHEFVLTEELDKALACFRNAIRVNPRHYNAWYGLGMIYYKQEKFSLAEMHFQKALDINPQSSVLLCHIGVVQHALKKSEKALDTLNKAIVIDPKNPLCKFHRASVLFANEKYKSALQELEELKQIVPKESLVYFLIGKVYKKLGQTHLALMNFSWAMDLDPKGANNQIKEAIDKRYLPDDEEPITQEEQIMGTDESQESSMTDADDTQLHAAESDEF
row,Variant,effect of a mutation on the interaction
1,MPSRAEDYEVLYTIGTGSYGRCQKIRRKSDGKILVWKELDYGSMTEAEKQMLVSEVNLLRELKHPNIVRYYDRIIDRTNTTLYIVMEYCEGGDLASVITKGTKERQYLDEEFVLRVMTQLTLALKECHRRSDGGHTVLHRDLKPANVFLDGKQNVKLGDFGLARILNHDTSFAKTFVGTPYYMSPEQMNRMSYNEKSDIWSLGCLLYELCALMPPFTAFSQKELAGKIREGKFRRIPYRYSDELNEIITRMLNLKDYHRPSVEEILENPLIADLVADEQRRNLERRGRQLGEPEKSQDSSPVLSELKLKEIQLQERERALKAREERLEQKEQELCVRERLAEDKLARAENLLKNYSLLKERKFLSLASNPELLNLPSSVIKKKVHFSGESAAAIMRSEASESQLTSKSKCKDLKKRLHAAQLRAQALSDIEKNYQLKSRQILGMR [K391A;E392A;N393A;N399A],decreasing interaction
